The text below walks through data of IntAct's records for PubMed 19955427.

Sequences and labels used below:
B1: Serine/threonine-protein kinase SRK2E (Arabidopsis thaliana (Mouse-ear cress)), Q940H6 (parent)
chain: MDRPAVSGPMDLPIMHDSDRYELVKDIGSGNFGVARLMRDKQSNELVAVKYIERGEKIDENVKREIINHRSLRHPNIVRFKEVILTPTHLAIVMEYASGGELFERICNAGRFSEDEARFFFQQLISGVSYCHAMQVCHRDLKLENTLLDGSPAPRLKICDFGYSKSSVLHSQPKSTVGTPAYIAPEVLLKKEYDGKVADVWSCGVTLYVMLVGAYPFEDPEEPKNFRKTIHRILNVQYAIPDYVHISPECRHLISRIFVADPAKRISIPEIRNHEWFLKNLPADLMNDNTMTTQFDESDQPGQSIEEIMQIIAEATVPPAGTQNLNHYLTGSLDIDDDMEEDLESDLDDLDIDSSGEIVYAM
partner: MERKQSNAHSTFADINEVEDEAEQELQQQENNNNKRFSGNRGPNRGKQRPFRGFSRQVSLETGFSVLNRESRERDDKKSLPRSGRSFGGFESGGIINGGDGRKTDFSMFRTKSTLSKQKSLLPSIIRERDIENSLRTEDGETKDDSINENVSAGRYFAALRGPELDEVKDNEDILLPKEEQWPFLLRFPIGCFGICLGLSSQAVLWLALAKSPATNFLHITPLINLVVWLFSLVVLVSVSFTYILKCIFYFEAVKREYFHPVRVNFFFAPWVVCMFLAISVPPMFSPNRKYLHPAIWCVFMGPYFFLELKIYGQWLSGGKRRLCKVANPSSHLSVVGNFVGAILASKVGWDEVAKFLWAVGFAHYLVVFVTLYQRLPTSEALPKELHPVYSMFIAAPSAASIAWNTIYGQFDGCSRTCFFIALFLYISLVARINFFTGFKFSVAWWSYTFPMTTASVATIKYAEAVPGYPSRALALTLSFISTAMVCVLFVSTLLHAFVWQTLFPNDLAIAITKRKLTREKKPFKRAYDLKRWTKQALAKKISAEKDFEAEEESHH
B2: Protein phosphatase 2C 37 (Arabidopsis thaliana (Mouse-ear cress)), P49598 (parent)
chain: MAGICCGVVGETEPAAPVDSTSRASLRRRLDLLPSIKIVADSAVAPPLENCRKRQKRETVVLSTLPGNLDLDSNVRSENKKARSAVTNSNSVTEAESFFSDVPKIGTTSVCGRRRDMEDAVSIHPSFLQRNSENHHFYGVFDGHGCSHVAEKCRERLHDIVKKEVEVMASDEWTETMVKSFQKMDKEVSQRECNLVVNGATRSMKNSCRCELQSPQCDAVGSTAVVSVVTPEKIIVSNCGDSRAVLCRNGVAIPLSVDHKPDRPDELIRIQQAGGRVIYWDGARVLGVLAMSRAIGDNYLKPYVIPDPEVTVTDRTDEDECLILASDGLWDVVPNETACGVARMCLRGAGAGDDSDAAHNACSDAALLLTKLALARQSSDNVSVVVVDLRKRRNNQASS
partner: B1 chain

In the first experiment the parent is B1. As to conditions: with slac1_arath SLAC1, Q9LD83.
For the variant MDRPAVSGPMDLPIMHDSDRYELVKDIGSGNFGVARLMRDKQSNELVAVNYIERGEKIDENVKREIINHRSLRHPNIVRFKEVILTPTHLAIVMEYASGGELFERICNAGRFSEDEARFFFQQLISGVSYCHAMQVCHRDLKLENTLLDGSPAPRLKICDFGYSKSSVLHSQPKSTVGTPAYIAPEVLLKKEYDGKVADVWSCGVTLYVMLVGAYPFEDPEEPKNFRKTIHRILNVQYAIPDYVHISPECRHLISRIFVADPAKRISIPEIRNHEWFLKNLPADLMNDNTMTTQFDESDQPGQSIEEIMQIIAEATVPPAGTQNLNHYLTGSLDIDDDMEEDLESDLDDLDIDSSGEIVYAM [K50N], the “effect of a mutation on the interaction” value was “disrupting interaction”.

The variants in a further experiment derive from B2. The conditions noted are these: with srk2e_arath SRK2E.
Turning to MAGICCGVVGETEPAAPVDSTSRASLRRRLDLLPSIKIVADSAVAPPLENCRKRQKRETVVLSTLPGNLDLDSNVRSENKKARSAVTNSNSVTEAESFFSDVPKIGTTSVCGRRRDMEDAVSIHPSFLQRNSENHHFYDVFDGHDCSHVAEKCRERLHDIVKKEVEVMASDEWTETMVKSFQKMDKEVSQRECNLVVNGATRSMKNSCRCELQSPQCDAVGSTAVVSVVTPEKIIVSNCGDSRAVLCRNGVAIPLSVDHKPDRPDELIRIQQAGGRVIYWDGARVLGVLAMSRAIGDNYLKPYVIPDPEVTVTDRTDEDECLILASDGLWDVVPNETACGVARMCLRGAGAGDDSDAAHNACSDAALLLTKLALARQSSDNVSVVVVDLRKRRNNQASS [G139D;G145D], the “effect of a mutation on the interaction” value was “disrupting interaction”.
